Ends that are not written are not given here.

The subject of experiment [1] is UBE2G2. The experiment can be described thus: CHX chase: UBE2G2 turnover in HT1080 AUP1 KO cells. The conditions noted are these: GFP fusion transfected with MYC-UBE2G2, HT1080 AUP1 KO, compared with GFP-SCR. Type of experiment: cell-based, human. How it is done:
Fig 7 G2BR^AUP1 protects UBE2G2 from degradation. (A) Indicated cells were assessed for steady state levels and turnover of endogenous UBE2G2 by CHX chase. (B) Transcript levels of endogenous UBE2G2 in AUP1 KO cells compared to HT1080 as determined by qPCR. Mean and standard deviation from three independent experiments is shown. […] (D) AUP1 KO cells were transfected with plasmids encoding MYC-UBE2G2 and GFP fusions of either a scrambled G2BR (SCR), G2BR^gp78, or G2BR^AUP1, and the turnover of UBE2G2 was assessed. (E) Relative abundance of gp78 (left panel) and AUP1 (right panel) in HT1080 cells was determined by resolving indicated amounts (in pmoles) of purified GST-gp78 (aa 429 to 611) or GST-AUP1 (aa 61 to 410) fusions alongside approximately 1 × 10^4 cellular equivalents of cell lysate and immunoblotting with gp78 or AUP1 antibodies. For each antibody, the amount of immunoreactivity in the lysate was compared to a defined quantity of a GST fusion protein of gp78 or AUP1 spanning the epitope recognized by the probing antibody. […] The data underlying this figure can be found in S1 and S8 Data. aa, amino acid; AUP1, ancient ubiquitous protein 1; CHX, cycloheximide; G2BR, UBE2G2 Binding Region; KO, knockout; qPCR, quantitative polymerase chain reaction; WT, wild type. […]

The target in experiment [2] is T1, purified UBE2G2 (UniProt P60604 1-165, ^15N-labeled for NMR).
T1 chain: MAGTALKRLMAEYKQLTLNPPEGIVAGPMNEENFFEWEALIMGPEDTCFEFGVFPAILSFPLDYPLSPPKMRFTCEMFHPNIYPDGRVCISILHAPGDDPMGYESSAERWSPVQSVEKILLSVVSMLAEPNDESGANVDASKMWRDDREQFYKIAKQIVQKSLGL
The experiment in a line: FP.

Experiment [3] deals with T1, purified UBE2G2. The experiment in a line: MST.
In experiment [4] the test system is NHK (Null Hong Kong variant of alpha1-antitrypsin). The experiment can be described thus: CHX chase: NHK degradation in HT1080 AUP1 KO cells. Type of experiment: cell-based, human. The note with it: full-length or deleted AUP1-FLAG re-expressed in HT1080 AUP1 KO cells, CHX 50 μg/mL. The procedure:
Fig 1 The G2BR of AUP1 is required for ERAD of NHK. (A) HT1080 or cells in which HRD1 was knocked out by CRISPR/Cas-9 (HRD1 KO) were transfected with plasmid encoding carboxyl-terminally HA-tagged NHK. Cells were treated with CHX for the indicated times to inhibit protein synthesis and NHK-HA degradation monitored by western blot. GFP and HSP60 serve as transfection efficiency and gel loading controls, respectively. (B) HT1080 or cells in which either AUP1 or gp78 was knocked out (AUP1 KO or gp78 KO) were transfected with NHK-HA and their degradation assessed. (C) AUP1 KO cells were transfected with NHK-HA and empty vector or plasmid encoding carboxyl-terminally FLAG-tagged AUP1 and NHK degradation assessed. (D) Indicated cells were transfected with plasmid encoding carboxyl-terminally MYC-tagged INSIG-1 and assessed for INSIG-1 degradation. (E) Schematic representation of AUP1 in the ER membrane and deletion mutants used in subsequent experiments. Amino acid residues are numbered spanning each domain. (F) AUP1 KO cells were transfected with NHK-HA and plasmids encoding the indicated FLAG-tagged AUP1 WT or deletion mutants and assessed for NHK degradation. (G) HEK293 (Parental) or HEK293 AUP1 KO cells were assessed for degradation of NHK-HA. (H) HEK293 AUP1 KO cells were assessed for NHK-HA degradation as in (F). Markers represent apparent molecular weight in kDa. The data underlying this figure can be found in S1 Data. aa, amino acid; AUP1, ancient ubiquitous protein 1; CHX, cycloheximide; ER, endoplasmic reticulum; ERAD, endoplasmic reticulum–associated degradation; G2BR, UBE2G2 Binding Region; KO, knockout; NHK, Null Hong Kong; WT, wild type.
(§1) Fig 6 Disruption of UBE2G2:G2BR^AUP1 interaction abrogates AUP1 function in cells. (A) GST or indicated GST-AUP1 fusions (aa 292 to 410, expression shown in Coomassie-stained gel) were immobilized on glutathione beads and binding to ^35S-UBE2G2 was assessed as in Fig 3A. Mutations include 2A (R382A/Q383A), 2E (R382E/Q383E), and 5E (R382E/Q383E/K390E/R398E/R400E). (B) AUP1 KO cells were transfected with NHK-HA and forms of full-length AUP1-FLAG with the indicated point mutations from (A) and NHK degradation assessed by CHX chase. (C) Binding assay performed as in (A) with AUP1 mutants predicted to disrupt hydrophobic interactions with UBE2G2. (D) Cellular assay performed as in (B) with AUP1-FLAG mutants that disrupt interactions with UBE2G2 in vitro in (C). The data underlying this figure can be found in S1 Data. aa, amino acid; AUP1, ancient ubiquitous protein 1; CHX, cycloheximide; G2BR, UBE2G2 Binding Region; KO, knockout; WT, wild type.
Fig 8 Recruitment of UBE2G2 to the ER membrane and activation by G2BR^AUP1 is required for ERAD. (A) HT1080 or AUP1 KO cells were transfected with NHK-HA and either empty vector or MYC-UBE2G2 and NHK turnover assessed by CHX chase. (B) AUP1 KO cells were transfected with NHK-HA and GFP fusions of either a scrambled G2BR sequence (SCR) or G2BR^AUP1 and NHK turnover and levels of endogenous UBE2G2 assessed. Luciferase and β-actin served as transfection efficiency and gel loading controls, respectively. (C) AUP1 KO cells were transfected with NHK-HA, MYC-UBE2G2, and either GFP-SCR or GFP-G2BR^AUP1 and NHK turnover assessed. (D) Membrane fractionation was performed on HT1080 or AUP1 KO cells transfected with either empty vector or AUP1-FLAG and localization of UBE2G2 assessed by western blotting. Localization of β-actin (cytosol) and Calnexin (ER membrane) were used as controls for cytosolic (C) and membrane (M) fractions, respectively. (E) Membrane fractionation of AUP1 KO cells transfected with either MYC-UBE2G2 or TM-UBE2G2. (F) HT1080 cells were transfected with TM-UBE2G2 and its localization assessed by confocal microscopy. Images shown are from an optical section after deconvolution. HA-tagged UBE2J2, an ER-localized E2, serves as an ER marker. […]

Experiment [5] deals with T2, UBE2G2 (Homo sapiens, UniProt P60604).
T2 construct: made in house
T2 sequence (P60604 1-165): T1 chain
The experiment can be described thus: GST pulldown of in vitro translated 35S-UBE2G2. The experiment is classed as binding. The note with it: GST-AUP1 aa 292 to 410 on glutathione beads, ~3 pmol GST fusion, ~0.2 pmol E2, overnight 4°C, pH 7.4. The procedure:
Fig 3 The AUP1–UBE2G2 interaction is required for ERAD. (A) Equimolar amounts of GST-AUP1 (aa 292 to 410) or GST were immobilized on glutathione beads and binding to the indicated in vitro translated ^35S-labeled E2s was assessed. Left panel is 5% of input used for binding. E2s are referred to by their unique alpha-numeric designation (e.g., UBE2G1 and UBE2J1). (B) HT1080 or UBE2G2 KO cells were transfected with INSIG-1-MYC and degradation assessed by CHX chase. […] (D) Cells were transfected with NHK-MYC and HA-ubiquitin and ubiquitination of NHK assessed following proteasome inhibition and IP (right panel). Left panel is 10% of total cell lysate used for IP, indicating no discernable change in total ubiquitination. (E) Levels of endogenous HRD1 were monitored by CHX chase in the indicated cell types. (F) Ubiquitination of endogenous HRD1 was assessed following IP with HRD1 antiserum. Arrow in upper panel indicates migration of unmodified HRD1. Control immunoprecipitates using rabbit serum are shown for comparison. The data underlying this figure can be found in S1 Data. aa, amino acid; AUP1, ancient ubiquitous protein 1; CHX, cycloheximide; ERAD, endoplasmic reticulum–associated degradation; IP, immunoprecipitation; KO, knockout; WT, wild type.
as §1
In vitro translated ^35S methionine-labeled E2s were generated using the E. coli T7-S30 Extract System (Promega) and excess ^35S methionine was removed by desalting twice with Zeba Spin Desalting Columns (Thermo Scientific). GST fusion proteins were quantified by Coomassie blue staining. Moreover, 0.1 μg of GST fusion protein (approximately 3 pmol) was prebound to GS 4B (GE Healthcare) and then incubated with approximately 10^5 cpm of ^35S methionine-labeled E2 (approximately 0.2 pmol) in 200 μl Binding Buffer (25 mM Tris-HCl, pH 7.4, 50 mM NaCl, 5 mM DTT, 0.5% IGEPAL CA-630) overnight at 4°C. Beads were extensively washed in Binding Buffer, resolved on Bis/Tris polyacrylamide gels under reducing conditions, dried and visualized on a Typhoon FLA 7000 (GE Healthcare). Binding was quantified using ImageQuant Software.

In experiment [6] the target is T3, purified UBE2G2 (UniProt P60604 1-165, ^15N-labeled for NMR).
T3 construct: UBE2G2, purified recombinant protein used for ITC, FP, MST and NMR; also called apo-UBE2G2; ^15N-labeled UBE2G2
T3 sequence (looked up): T1 chain
The experiment can be described thus: ITC; 30 μM G2BR peptide injected into 3 μM UBE2G2 in the cell, PBS pH 7.4, 25°C, one set of sites model. The conditions noted are these: both partners purified.

In the case of “GFP-G2BR^gp78: GFP fusion of gp78 aa 574 to 600”, in the experiment on UBE2G2 [1], the “UBE2G2 degradation and steady state level” value is “protected UBE2G2 from degradation and increased the steady state level of this E2”.

Regarding SSWARQESLQERKQALYEYARRRFTER (also: FITC label, position not given here) [FITC-labeled G2BR^AUP1 peptide], the Kd – broadly, the constant that tells how readily two partners part at equilibrium – with purified UBE2G2 [2] is 7.1 nM; with purified UBE2G2 [3] it was 4.3 nM.

B1: L386D/Y394D: AUP1 point mutant; GST-AUP1 aa 292 to 410 in vitro, full-length AUP1-FLAG in cells (protein)
chain: SPDVQLATLAQRVKEVLPHVPLGVIQRDLAKTGCVDLTITNLLEGAVAFMPEDITKGTQSLPTASASKFPSSGPVTPQPTALTFAKSSWARQESDQERKQALDEYARRRFTERRAQEAD
modifications: left off: GST, end not stated, kept
notes: AUP1 point mutant; GST-AUP1 aa 292 to 410 in vitro, full-length AUP1-FLAG in cells
Turning to B1, in experiment [4], the “restoration of NHK degradation” value is reported as “failed to restore NHK degradation”. The “binding to UBE2G2” value in the experiment with UBE2G2 [5] was “eliminated detectable binding to UBE2G2”.

On to WSADERQRMLVQRKDELLQQARKRFLNK (also: FITC label, position not given here) [FITC-labeled G2BR^gp78 peptide], for which the values for the Kd with purified UBE2G2 [2] and with purified UBE2G2 [3] were 15.1 nM and 10 nM, respectively.

B2: G2BR^gp78 peptide (aa 574 to 600, with an added N-terminal Trp) (peptide)
peptide: WSADERQRMLVQRKDELLQQARKRFLNK
notes: N-terminal Trp residue added for peptide quantification; Natural stretch with one extra N-terminal Trp added for quantification; also called gp78 G2BR; source: synthetic peptide (GenScript)
In the experiment with purified UBE2G2 [6], B2 yielded a Kd of 2.7 nM.

B3: G2BR^AUP1 peptide (aa 378 to 404) (peptide)
peptide: SSWARQESLQERKQALYEYARRRFTER
notes: also called AUP1 G2BR; source: synthetic peptide (GenScript)
In turn, B3 registered a Kd with purified UBE2G2 [6] of 3.1 nM.

The values above are taken from PMC8699718, “A structurally conserved site in AUP1 binds the E2 enzyme UBE2G2 and is essential for ER-associated degradation” (PLoS Biology, 2021).
